From article doi:10.1101/2020.04.10.035014 (bioRxiv, 2020) come the findings set out here.

B1: C-terminus of INTS6 (INTS6c; residues 800-887) (domain or fragment, human, UniProt Q9UL03 800-887, looked up)
chain: MHCRSHEEVNTELKAQIMKEIRKPGRKYERIFTLLKHVQGSLQTRLIFLQNVIKEASRFKKRMLIEQLENFLDEIHRRANQINHINSN
B2: C-terminus of INTS3 (INTS3c; residues 560-905 and 915-995, co-expressed) (domain or fragment, human)
chain 1: TVVEEPVDITPYLDQLDESLRDKVLQLQKGSDTEAQCEVMQEIVDQVLEEDFDSEQLSVLASCLQELFKAHFRGEVLPEEITEESLEESVGKPLYLIFRNLCQMQEDNSSFSLLLDLLSELYQKQPKIGYHLLYYLRASKAAAGKMNLYESFAQATQLGDLHTCLMMDMKACQEDDVRLLCHLTPSIYTEFPDETLRSGELLNMIVAVIDSAQLQELVCHVMMGNLVMFRKDSVLNILIQSLDWETFEQYCAWQLFLAHNIPLETIIPILQHLKYKEHPEALSCLLLQLRREKPSEEMVKMVLSRPCHPDDQFTTSILRHWCMKHDELLAEHIKSLLIKNNSLPRK
chain 2: KLAQLTLEQILEHLDNLRLNLTNTKQNFFSQTPILQALQHVQASCDEAHKMKFSDLFSLAEEYEDSSTKPPKSRRKAALSS
B3: INTS3(1-995) (domain or fragment, human, UniProt Q68E01 1-995, looked up)
chain: MELQKGKGAAAAAAASGAAGGGGGGAGAGAPGGGRLLLSTSLDAKDELEERLERCMSIVTSMTAGVSEREANDALNAYVCKGLPQHEEICLGLFTLILTEPAQAQKCYRDLALVSRDGMNIVLNKINQILMEKYLKLQDTCRTQLVWLVRELVKSGVLGADGVCMTFMKQIAGGGDVTAKNIWLAESVLDILTEQREWVLKSSILIAMAVYTYLRLIVDHHGTAQLQALRQKEVDFCISLLRERFMECLMIGRDLVRLLQNVARIPEFELLWKDIIHNPQALSPQFTGILQLLQSRTSRKFLACRLTPDMETKLLFMTSRVRFGQQKRYQDWFQRQYLSTPDSQSLRCDLIRYICGVVHPSNEVLSSDILPRWAIIGWLLTTCTSNVAASNAKLALFYDWLFFSPDKDSIMNIEPAILVMHHSMKPHPAITATLLDFMCRIIPNFYPPLEGHVRQGVFSSLNHIVEKRVLAHLAPLFDNPKLDKELRAMLREKFPEFCSSPSPPVEVKIEEPVSMEMDNHMSDKDESCYDNAEAAFSDDEEDLNSKGKKREFRFHPIKETVVEEPVDITPYLDQLDESLRDKVLQLQKGSDTEAQCEVMQEIVDQVLEEDFDSEQLSVLASCLQELFKAHFRGEVLPEEITEESLEESVGKPLYLIFRNLCQMQEDNSSFSLLLDLLSELYQKQPKIGYHLLYYLRASKAAAGKMNLYESFAQATQLGDLHTCLMMDMKACQEDDVRLLCHLTPSIYTEFPDETLRSGELLNMIVAVIDSAQLQELVCHVMMGNLVMFRKDSVLNILIQSLDWETFEQYCAWQLFLAHNIPLETIIPILQHLKYKEHPEALSCLLLQLRREKPSEEMVKMVLSRPCHPDDQFTTSILRHWCMKHDELLAEHIKSLLIKNNSLPRKRQSLRSSSSKLAQLTLEQILEHLDNLRLNLTNTKQNFFSQTPILQALQHVQASCDEAHKMKFSDLFSLAEEYEDSSTKPPKSRRKAALSS

The target of data set [1] is B2. The data set can be described thus: crystal structure.
Data set [2] deals with the molecule itself. The data set is described as follows: crystal structure.
Data set [3] concerns the molecule itself. The data set can be described thus: SEC.

Regarding B1, the binding result in data set [1] is recorded as “binds”.

By stoichiometry N is commonly meant a count of units in the complex or per binding partner. B2: in data set [2], the “stoichiometry N” value is 2. B3: the “stoichiometry N” value in data set [3] is 2.
